Test results published in article PMC5943153.

Tests used:
Assay in all cases: two-hybrid
[1] = biological target: HP0221-T25 (NifU) (Helicobacter pylori strain 26695) (UniProt O25009)
[2] = biological target: T25-HP0221 (NifU) (Helicobacter pylori strain 26695) (UniProt O25009)
[3] = biological target: T25-HP0220 (NifS) (Helicobacter pylori strain 26695) (UniProt O25008)
[4] = biological target: T25-HP1492 (Nfu) (Helicobacter pylori strain 26695) (UniProt O26025)
[5] = biological target: T25-Zip
T25-Zip, sequence (P03069 whole entry): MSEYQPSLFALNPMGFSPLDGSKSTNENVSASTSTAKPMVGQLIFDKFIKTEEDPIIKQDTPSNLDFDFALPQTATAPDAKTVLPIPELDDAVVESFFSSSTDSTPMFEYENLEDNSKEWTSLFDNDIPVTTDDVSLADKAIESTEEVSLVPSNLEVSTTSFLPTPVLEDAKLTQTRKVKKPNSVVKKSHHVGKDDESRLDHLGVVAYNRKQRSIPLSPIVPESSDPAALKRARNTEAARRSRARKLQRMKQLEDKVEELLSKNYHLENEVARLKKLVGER

T18-Zip (domain or fragment), sequence (P03069 whole entry, the tested form may be a part): as the sequence (P03069 whole entry) above

Substance | growth OD595 in M63-maltose [1] [OD595] | growth OD595 in M63-maltose [2] [OD595] | further results
T18-HP0117 (from UniProt P56080 2-308) (natural protein) | 0.36 | – | –
T18-HP0400 (from UniProt P65185 2-274) (natural protein) | – | 0.11 | –
T18-HP0468 (from UniProt O25214 2-495) (natural protein) | 0.29 | – | –
T18-HP0768 (from UniProt P56414 2-321) (natural protein) | 0.21 | – | –
T18-HP0934 (from UniProt O25588 2-251) (natural protein) | 0.13 | – | –
T18-Zip (domain or fragment) | – | – | growth OD595 in M63-maltose [5]: 0.23 OD595

Now from value to substance, other results behind:

growth OD595 in M63-maltose [1] [OD595] | growth OD595 in M63-maltose [2] [OD595] | Substance | further results
0.44 | – | T18-HP0142 (from UniProt O24954 2-328) (natural protein) | –
– | 0.37 | T18-HP0221 (from UniProt O25009 2-326) (natural protein) | –
0.25 | – | T18-HP0285 (from UniProt P56130 2-418) (natural protein) | –
– | 0.32 | T18-HP1266 (from UniProt O25856 2-844) (natural protein) | –
0.26 | – | T18-HP1406 (from UniProt O25956 2-282) (natural protein) | –
0.29 | 0.13 | T18-HP1492 (natural protein) | growth OD595 in M63-maltose [3]: 0.32 OD595; growth OD595 in M63-maltose [4]: 0.39 OD595
